# Assay results published in patent publication US20210155676A1 (Gilead, published 2021).
# Changes are numbered by the printed parent chain.
# B1: PGT121.42 hIgG1/hLambda (antibody)
# heavy: QMQLQESGPGLVKPSETLSLTCSVSGASISDSYWSWIRRSPGKGLEWIGYVHKSGDTNYNPSLKSRVHLSLDTSKNQVSLSLSSVTAADSGKYYCARTLHGRRIYGIVAFNEWFTYFYMDVWGKGTQVTVSSASTKGPSVFPLAPSSKSTSGGTAALGCLVKDYFPEPVTVSWNSGALTSGVHTFPAVLQSSGLYSLSSVVTVPSSSLGTQTYICNVNHKPSNTKVDKKVEPKSCDKTHTCPPCPAPELLAGPDVFLFPPKPKDTLMISRTPEVTCVVVDVSHEDPEVKFNWYVDGVEVHNAKTKPREEQYNSTYRVVSVLTVLHQDWLNGKEYKCKVSNKALPLPEEKTISKAKGQPREPQVYTLPPSREEMTKNQVSLTCLVKGFYPSDIAVEWESNGQPENNYKTTPPVLDSDGSFFLYSKLTVDKSRWQQGNVFSCSVLHEALHSHYTQKSLSLSPGK
# light: not shown
# notes: also called PTG121.42
# B2: PGT121.56 hIgG1/hLambda (antibody)
# heavy: B1 heavy with N60S, H68N, S83V, S84A, V85A, K124N
# light: not shown
# Columns and labels:
# human FcγRIIIA [1] = target: T1, human FcγRIIIA (human, UniProt P08637 17-254); assay: cell-based or functional assay
# gp140 SHIV SF162P3 = target: T2, gp140 SHIV SF162P3 (SHIV SF162P3); assay: ELISA, gp140 coated
# T2 construct: domain: gp140; also called SHIV gp140
# Protocol: (§1) The in vitro binding characteristics of antibodies for both the antigen (HIV gp120) and Fc binding receptors (FcγRs, FcRn) were determined using an Enzyme-Linked Immunosorbant Assay (ELISA).
# gp140 BaL = target: T3, gp140 BaL (HIV-1 strain BaL); assay: ELISA, gp140 coated
# T3 construct: domain: gp140
# Protocol: as §1
# [2] = target: HIV-1 93HT593 Env (on virus) (HIV-1 isolate 93HT593); assay: cell-based or functional assay
# [3] = target: HIV-1 92US727 Env (on virus) (HIV-1 isolate 92US727); assay: cell-based or functional assay
# HIV-1 BaL Env (on virus) = HIV-1 BaL Env (on virus) (HIV-1 strain BaL); assay: cell-based or functional assay
# [4] = target: HIV-1 92US657 Env (on virus) (HIV-1 isolate 92US657); assay: cell-based or functional assay
# [5] = target: HIV-1 92US712 Env (on virus) (HIV-1 isolate 92US712); assay: cell-based or functional assay
# human FcγRIIIA [6] = target: T1, human FcγRIIIA; assay: cell-based or functional assay; remark: listed apart in the source
# human FcγRIIIA [7] = target: T1, human FcγRIIIA; assay: cell-based or functional assay; remark: listed apart in the source
# T1 sequence (P08637 17-254): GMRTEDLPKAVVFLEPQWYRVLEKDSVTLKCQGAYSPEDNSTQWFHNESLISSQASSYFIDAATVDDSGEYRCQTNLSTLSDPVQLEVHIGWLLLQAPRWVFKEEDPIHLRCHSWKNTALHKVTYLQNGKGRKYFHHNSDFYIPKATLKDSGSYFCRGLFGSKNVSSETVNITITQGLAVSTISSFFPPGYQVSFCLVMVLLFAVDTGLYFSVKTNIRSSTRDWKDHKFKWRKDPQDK
binder,measurement,setting,value
B1,"NK ADCC EC50, US657-infected CD4+ T cells, donor A4588",human FcγRIIIA [1],4.3 nM
same,"NK ADCC EC50, US657-infected CD4+ T cells, donor A4589",human FcγRIIIA [1],1.5 nM
same,"NK ADCC EC50, US657-infected CD4+ T cells, donor A4595",human FcγRIIIA [1],0.57 nM
same,"NK ADCC EC50, US657-infected CD4+ T cells, donor A4813",human FcγRIIIA [1],1.4 nM
same,"NK ADCC EC50, US657-infected CD4+ T cells, donor A4838",human FcγRIIIA [1],0.94 nM
same,"NK ADCC EC50, US657-infected CD4+ T cells, donor A4839",human FcγRIIIA [1],0.54 nM
same,"NK ADCC EC50, US657-infected CD4+ T cells, geomean of donors",human FcγRIIIA [1],1.2 nM
same,EC50,gp140 SHIV SF162P3,0.45 nM
same,EC50,gp140 BaL,0.52 nM
same,"neutralization IC50, HIV-1 HT593, CEM.NKr.CCR5.Luc assay",[2],0.155 µg/mL
same,"neutralization IC50, HIV-1 US727, CEM.NKr.CCR5.Luc assay",[3],0.015 µg/mL
same,"neutralization IC50, HIV-1 BaL, CEM.NKr.CCR5.Luc assay",HIV-1 BaL Env (on virus),0.015 µg/mL
same,"neutralization IC50, HIV-1 US657, CEM.NKr.CCR5.Luc assay",[4],0.096 µg/mL
same,"neutralization IC50, HIV-1 US712, CEM.NKr.CCR5.Luc assay",[5],0.02 µg/mL
same,"NK ADCC EC50, BaL-infected CD4+ T cells, donor A4590",human FcγRIIIA [6],1.2 nM
same,"NK ADCC EC50, BaL-infected CD4+ T cells, donor A4591",human FcγRIIIA [6],0.02 nM
same,"NK ADCC EC50, BaL-infected CD4+ T cells, donor A4813",human FcγRIIIA [6],4.4 nM
same,"NK ADCC EC50, BaL-infected CD4+ T cells, donor A4838",human FcγRIIIA [6],0.5 nM
same,"NK ADCC EC50, BaL-infected CD4+ T cells, donor A4839",human FcγRIIIA [6],3.9 nM
same,"NK ADCC EC50, BaL-infected CD4+ T cells, geomean of donors",human FcγRIIIA [6],0.7 nM
same,"NK ADCC EC50, HT593-infected CD4+ T cells, donor 1",human FcγRIIIA [7],0.024 nM
same,"NK ADCC EC50, HT593-infected CD4+ T cells, donor A4588",human FcγRIIIA [7],0.176 nM
same,"NK ADCC EC50, HT593-infected CD4+ T cells, donor A4589",human FcγRIIIA [7],0.18 nM
same,"NK ADCC EC50, HT593-infected CD4+ T cells, donor A4813",human FcγRIIIA [7],4.9 nM
same,"NK ADCC EC50, HT593-infected CD4+ T cells, donor A4838",human FcγRIIIA [7],0.62 nM
same,"NK ADCC EC50, HT593-infected CD4+ T cells, donor A4839",human FcγRIIIA [7],5.2 nM
same,"NK ADCC EC50, HT593-infected CD4+ T cells, donor X",human FcγRIIIA [7],0.014 nM
same,"NK ADCC EC50, HT593-infected CD4+ T cells, geomean of donors",human FcγRIIIA [7],0.3 nM
B2,EC50,gp140 SHIV SF162P3,0.48 nM
same,EC50,gp140 BaL,0.59 nM
same,"neutralization IC50, HIV-1 HT593, CEM.NKr.CCR5.Luc assay",[2],0.164 µg/mL
same,"neutralization IC50, HIV-1 US727, CEM.NKr.CCR5.Luc assay",[3],0.011 µg/mL
same,"neutralization IC50, HIV-1 BaL, CEM.NKr.CCR5.Luc assay",HIV-1 BaL Env (on virus),0.02 µg/mL
same,"neutralization IC50, HIV-1 US657, CEM.NKr.CCR5.Luc assay",[4],0.142 µg/mL
same,"neutralization IC50, HIV-1 US712, CEM.NKr.CCR5.Luc assay",[5],0.019 µg/mL
